Measured values: the supplement of paper PMC9170038

System: K4 kissing-loop RNA reporter
Assay: apparent KD of K4 kissing-loop reporter; higher = weaker reporter binding
Conditions: Eterna round: R107
Protocol: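 RNA-MaP round R107: designed RNA switches with theophylline, tryptophan, arginine or FMN aptamers are transcribed on-chip within common flanks. They are titrated with a labelled K4 kissing-loop RNA reporter in RNA-MaP buffer (100 mM Tris pH 7.5, 80 mM KCl, 4 mM MgCl2), without ligand or with the indicated ligand. Median apparent KD per design.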

[1] = input ligand: theophylline 20 uM
[2] = input ligand: tryptophan 2.4 mM
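Further: bound reporter read as fluorescence of individual clusters on recovered sequencing chips by microscopy, with normalized cluster intensities fitted with a binding model.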

| Sequence | apparent KD of K4 kissing-loop reporter (input ligand: FMN 200 uM) | apparent KD of K4 kissing-loop reporter (input ligand: arginine 13.2 mM) | apparent KD of K4 kissing-loop reporter (input ligand: none) | apparent KD of K4 kissing-loop reporter [1] | apparent KD of K4 kissing-loop reporter [2] |
| --- | --- | --- | --- | --- | --- |
| AAGUGAUGUUGUAGUGAUGUUGUGAUGUUGCAGGAUAUAUAGUGAUGUAGAAGGGUAAGUACUUAUUUUUUUUUUGAGUUAUGUU [crrczrmullin] | 85.5 nM | 33 nM | 62.8 nM | 45.9 nM | 65.4 nM |
| GUGGGCAUAGCAGGAUAUCCAUAUUAACAGGAGUCCUCGCCAGUGAUGUUGGAAAGGUACCGGAGUGGAGAAGGGCUCCUACGUA [Anbiratien] | 594 nM | 782 nM | 813 nM | 757 nM | 515 nM |
| CAGAACAUAUAUAGAAACUAUAUAUGAGAUACCAGUCAAAUUAAAGACCCUUGGCAGCUCAGGCGAGUGAUGUUCGCAGGCUAAC [Astros-Gfrank-modulation#2] | 95.9 nM | 109 nM | 102 nM | 122 nM | 88.3 nM |
| AAUAUAGUGAUGUUAUAUAAGAAGGAGUUACGAGGACCGGUACGGCCGCCACUCGAAACGAGUGAGGGUUUGGGAGAUUGGGCCC [SSTryptA.J] | 493 nM | 310 nM | 451 nM | 322 nM | 384 nM |
| UGAGGAGAAUAUGAUACCAGCAGAGAGAGAGAGGAAGUAUAGUGAUGUUAUAUGAGAGAAUGCCCUUGGCAGCAUAAGAAGAAGG [SSTheophylB.B] | 148 nM | 121 nM | 142 nM | 129 nM | 125 nM |
| UUUCGUCUCUGAGGAUAUCAGAGGAGAGUGAUGUUCUCCCAUAGCCCAGUGAUGUUGGAUGCUAUCUGAGAAGGCAGUGGGCGAA [Same State FMN B GF 13] | 143 nM | 141 nM | 164 nM | 144 nM | 155 nM |
| GGUAGCAUGGCGGCCGCCACUGAGCAAGUGAUGUUUGCCUCCCUACCCUAGUGUCGAGAGUAUAUCAGGACCGGGCCAUGCUACC | 188 nM | 132 nM | 149 nM | 164 nM | 136 nM |
| GUUUGGCUCCGAAGACGGCAGUGGGAAAUAUAGGAUAUCUAGAAAUAGAGAAGGAUACUAGUGAUGUUAGUAUCGGAUAAAACAA | 85.9 nM | 76.3 nM | 73 nM | 83.7 nM | 79.8 nM |
| UAUCCUCGCUGAAGGAGCGAGCAUGAAGCAGUGAUGUUCCGAGCGAGUGAUGUUCGCAUAGCUCAGGUAGGUCGCAGUGGGAUUU [Same State Arginie B GF 17] | 795 nM | 749 nM | 1030 nM | 517 nM | 530 nM |
| AUGGUUGUCGUAGGAUAUGUAGGAUAUUCCUAUAGCAGUGAUGUUGCUAAUAUCAAUGGAAGAAGGACAGAAGGACGAUAACCAC [KL-SSFMN-B3 #analogue #DoubleAptamer] | 113 nM | 120 nM | 113 nM | 118 nM | 113 nM |
| CUAUGGGUGGACGAUACCAGCUAGUGAUGUUAGCGGGUCGAGCACGCGCAUCGCCGUGGUAGCCCUUGGCAGCGUACAGAUGUUU [theeternabot_exclusion_KL_Theo_B_5] | 186 nM | 131 nM | 178 nM | 157 nM | 162 nM |
| GCCGUACGCAUGGAUACCAGUCUUUCACGACUGGGCAUGGAGUGAUGUUUCGUGAUGCUAGACCCUUGGCAGCCAUGCGUACGGC | 201 nM | 163 nM | 175 nM | 184 nM | 175 nM |
| UGGUAUAGUGAUGUUAUACCACUACCAGAUACCAGUGUAACAUUACGCCCUUGGCAGCUGAUCAGGGAACAUAUGGAGACAUAUG [Theo A Mod astro A#6] | 318 nM | 261 nM | 285 nM | 267 nM | 292 nM |
| AGUCUCAAAAGAGGCAGCACUCACGAGGACAAGGAUAUCAUCUCAAUGAGAAGGUGUCCUCGUCCCUAGUGAUGUUAGGGAGUGC [Omei KL FMN A SS E v6] | 205 nM | 265 nM | 305 nM | 682 nM | 437 nM |
| AUCAGCCUCAGAAGGAGCGUGAGUUUUAAGAGGCUGGAGUGAUGUUCCAGACAUAACGACUCACAGGUAGGUCGCUGAGACUAGU [Arg B SS t1] | 132 nM | 99.8 nM | 121 nM | 98.5 nM | 114 nM |
| GCCGUACGCAUGGAUACCAGCAUCAGAUCUUAGUGAUGUUAAGUCGAGAGUUGGUCAAAAUGCCCUUGGCAGCCAUGCGUACGGC | 128 nM | 90.8 nM | 105 nM | 99.5 nM | 98.2 nM |
